Experimental data from PMC5496915, “Interactions between LHX3- and ISL1-family LIM-homeodomain transcription factors are conserved in Caenorhabditis elegans” (Scientific Reports, 2017).

Target: T1, CEH-14_(LIM1+2) as it stands in the tethered CEH-14–LIM-7 complex (C. elegans, UniProt P20271 42-168)
T1 construct: CEH-14, C. elegans, tandem LIM domains LIM1+2, residues 42-168; Joined on one chain with m29 through an 11-residue Gly/Ser linker; the whole chain is m27; also called LIM domains from CEH-14
T1 sequence (looked up): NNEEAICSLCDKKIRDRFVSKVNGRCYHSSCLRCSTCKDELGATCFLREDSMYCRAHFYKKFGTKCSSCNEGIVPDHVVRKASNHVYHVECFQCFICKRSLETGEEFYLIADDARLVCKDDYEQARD
Assay: SAXS; tethered complex on one chain, 5.2 mg/mL, 50 mM Tris, 100 mM NaCl, 5 mM TCEP pH 8.0 (the legend says 20 mM Tris pH 8.0, 150 mM NaCl, 1 mM TCEP), 10 °C; low-resolution shape restoration
Conditions: both partners purified

binding result: binds
B1: LIM-7LID as it stands in the tethered CEH-14–LIM-7 complex (domain or fragment, C. elegans)
chain: GIGPLMVQPATPHIDNTLGGPIDIQHFAQW
notes: Joined on one chain with m28 through an 11-residue Gly/Ser linker; the whole chain is m27; also called LID from LIM-7
